Target: Human ACE2 with Fc tag (human) (UniProt Q9BYF1)
Assay: SPR

Human ACE2 with Fc tag (human), sequence (Q9BYF1 18-740): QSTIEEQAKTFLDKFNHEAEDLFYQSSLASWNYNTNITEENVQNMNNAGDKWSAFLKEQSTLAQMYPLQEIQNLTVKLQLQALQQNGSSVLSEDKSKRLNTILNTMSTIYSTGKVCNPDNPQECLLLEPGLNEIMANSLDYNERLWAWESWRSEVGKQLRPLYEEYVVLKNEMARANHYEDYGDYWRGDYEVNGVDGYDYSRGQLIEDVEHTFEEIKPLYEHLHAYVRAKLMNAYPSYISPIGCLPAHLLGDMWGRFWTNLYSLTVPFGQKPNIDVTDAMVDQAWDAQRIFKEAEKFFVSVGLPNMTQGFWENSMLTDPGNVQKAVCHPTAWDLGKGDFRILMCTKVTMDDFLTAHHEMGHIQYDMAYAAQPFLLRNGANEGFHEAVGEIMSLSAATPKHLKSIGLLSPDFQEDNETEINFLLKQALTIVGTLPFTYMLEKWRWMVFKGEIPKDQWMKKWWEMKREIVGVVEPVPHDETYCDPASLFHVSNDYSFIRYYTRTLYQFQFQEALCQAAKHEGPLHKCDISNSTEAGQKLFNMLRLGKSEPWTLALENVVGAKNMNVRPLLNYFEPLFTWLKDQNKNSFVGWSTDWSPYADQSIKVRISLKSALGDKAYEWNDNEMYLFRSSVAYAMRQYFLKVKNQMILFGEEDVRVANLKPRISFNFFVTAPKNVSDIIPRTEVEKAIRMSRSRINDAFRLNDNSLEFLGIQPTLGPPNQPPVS

Substance: WT RBD
- Kd: 16 nM
- koff: 0.0051 s⁻¹

Source: paper PMC10764275
